Experimental data: patent US20240317834A1, “COMPOSITIONS AND METHODS FOR NEUROLOGICAL DISEASES” (CODA BIOTHERAPEUTICS, INC., priority 2020, published 2024)

Columns and labels:
Lenti-X 293T cells = test: YFP fluorescence quenching anion reporter plate reader assay of engineered receptors stimulated with acetylcholine or a non-native ligand; assay type: cell-based
How it was run: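 YFP quench was followed for about 1 min 43 s after ligand delivered in iodide-based ECS, pH 7.2. Values are end-of-read fluorescence (last 10 s) divided by the pre-ligand baseline (15 s). Cells were LX293T, transfected with receptor DNA a day before the assay.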

rat DRG neurons = test: Rheobase shift and evoked action potentials in rat DRG neurons (current clamp); assay type: cell-based
Experimental: Using whole cell manual patch clamp electrophysiology in HEK293 cells, rat DRG neurons and rat hippocampal neurons, the EC50 of the various engineered receptors disclosed herein to Ach and non-native ligands was measured using the Hill equation with peak current measurements from escalating doses of ligand. The rheobase shift was also measured in rat DRG neurons, which reflects the efficacy of the receptors. To calculate the rheobase, first, the amount of current that can produce an action potential was determined. Then the ligand was added, followed by a step wise increase in the current injected up to 700 pA.
For manual patch clamp experiments, Cells plated on coverslips were visualized at 10× and 40× on an inverted fluorescence microscope (Olympus). Recordings were made with an Axopatch 200B amplifier and Digidata 1550B (Molecular Devices) at RT using 3-6 MOhm glass patch electrodes (Sutter, BF150-86-10). Unless otherwise stated, recordings were made in extracellular solution (ECS) containing: 140 mM sodium chloride, 4 mM potassium chloride, 1 mM magnesium chloride, 2 mM calcium chloride, 10 mM HEPES, and 10 mM D-(+)-glucose (pH=7.3 with sodium hydroxide, osmolarity=305−315 mOsm). An 8-line reservoir (AutoMate Scientific) in combination with an 8-channel zero-dead-volume perfusion pencil (AutoMate Scientific) was used for perfusion. Data was acquired using pClamp software (Molecular Devices). Traces were either analyzed in Clampfit (Molecular Devices) or using custom Python code. Plotting and statistics were performed in GraphPad Prism.
DRG rheobase experiments were performed in current clamp mode using a potassium-based internal solution containing: 100 mM potassium D-gluconate, 28 mM potassium chloride, 1 mM magnesium chloride hexahydrate, 5 mM magnesium ATP, 10 mM HEPES, and 0.5 mM EGTA (pH=7.2 with potassium hydroxide, osmolarity=290-295 mOsm, calculated liquid junction potential=−13.5 mV). To measure DRG input resistance and rheobase, 500 ms current steps (−200 pA to 700 pA) were applied the membrane in the presence and absence of a compound. No holding current was applied to the membrane for cells included in the final datasets. Data were acquired at 10 kHz, with Bessel filter at 2 kHz and series resistance compensation at 100%. Rheobase was defined as the smallest depolarizing current injection required to cause an action potential to fire in the cell. In a subset of cells, the rheobase was ambiguous, since the action potential appeared to be graded in amplitude. In these cases, a […] of the trace clarified the rheobase. Input resistance was measured from the negative current injections, calculated as the difference in membrane potential at steady state divided by the current injection amplitude and then averaged across the four negative current steps for each recording. Resting membrane potential was measured from the first 100 ms of each sweep, averaged for each recording, and corrected for liquid junction potential. One-way ANOVA with multiple comparisons was used to test for significance of difference in rheobase and input resistance between baseline, drug, and wash conditions.

B1: CODA1027: engineered chimeric LGIC receptor, R101F, L131D in SEQ ID NO: 33 (protein)
chain: MRCSPGGVWLALAASLLHVSLQGEFQRKLYKELVKNYNPLERPVANDSQPLTVYFSLSLLQIMDVDEKNQVLTTNIWLQMSWTDHYLQWNVSEYPGVKTVFFPDGQIWKPDILLYNSADERFDATFHTNVDVNSSGHCQYLPPGIFKSSCPMDLKNFPMDVQTCKLKFGSWSYGGWSLDLQMQEADISGYIPNGEWDLVGIPGKRSERFYECCKEPYPDVTFTVTMRRRMGYYLIQMYIPSLLIVILSWISFWINMDAAPARVGLGITTVLTMTTQSSGSRASLPKVSYVKAIDIWMAVCLLFVFSALLEYAAVNFVSRQHKELLRFRRKRRHHKSPMLNLFQEDEAGEGRFNFSAYGMGPACLQAKDGISVKGANNSNTTNPPPAPSKSPEEMRKLFIQRAKKIDKISRIGFPMAFLIFNMFYWIIYKIVRREDVHNQ
modifications: synthetic sequence of chimeric LGIC
Lenti-X 293T cells; 1 nM CNL001, first column
  YFP fluorescence quenching using CNL001: 24.049%
Lenti-X 293T cells; 1 nM CNL001, second column
  YFP fluorescence quenching using CNL001: 36.755%
Lenti-X 293T cells; 1 nM brd
  YFP fluorescence quenching using TC-5619/Bradanicline: −10.07%
Lenti-X 293T cells; 3 nM brd
  YFP fluorescence quenching using TC-5619/Bradanicline: −0.8%
Lenti-X 293T cells; 3 nM var, first column
  YFP fluorescence quenching using Varenicline: −3.367
Lenti-X 293T cells; 3 nM var, second column
  YFP fluorescence quenching using Varenicline: −0.431
Lenti-X 293T cells; 10 nM CNL001, first column
  YFP fluorescence quenching using CNL001: 52.927%
Lenti-X 293T cells; 10 nM CNL001, second column
  YFP fluorescence quenching using CNL001: 61.449%
Lenti-X 293T cells; 10 nM brd
  YFP fluorescence quenching using TC-5619/Bradanicline: 1.74%
Lenti-X 293T cells; 30 nM brd
  YFP fluorescence quenching using TC-5619/Bradanicline: 53.95%
Lenti-X 293T cells; 30 nM fac
  YFP fluorescence quenching using Facinicline: −10.05
Lenti-X 293T cells; 30 nM var, first column
  YFP fluorescence quenching using Varenicline: −0.761
Lenti-X 293T cells; 30 nM var, second column
  YFP fluorescence quenching using Varenicline: 2.989
Lenti-X 293T cells; 50 nM CNL001, first column
  YFP fluorescence quenching using CNL001: 67.308%
Lenti-X 293T cells; 50 nM CNL001, second column
  YFP fluorescence quenching using CNL001: 68.77%
Lenti-X 293T cells; 50 nM abt
  YFP fluorescence quenching using ABT-126: −11.89%
Lenti-X 293T cells; 100 nM CNL001, first column
  YFP fluorescence quenching using CNL001: 69.049%
Lenti-X 293T cells; 100 nM CNL001, second column
  YFP fluorescence quenching using CNL001: 71.613%
Lenti-X 293T cells; 100 nM CNL002
  YFP fluorescence quenching using CNL002: 7.75%
Lenti-X 293T cells; 100 nM abt
  YFP fluorescence quenching using ABT-126: −16.07%
Lenti-X 293T cells; 100 nM azd0328
  YFP fluorescence quenching using AZD-0328: −4.76%
Lenti-X 293T cells; 300 nM abt
  YFP fluorescence quenching using ABT-126: −11.21%
Lenti-X 293T cells; 300 nM azd0328
  YFP fluorescence quenching using AZD-0328: −7.52%
Lenti-X 293T cells; 300 nM brd
  YFP fluorescence quenching using TC-5619/Bradanicline: 76.74%
Lenti-X 293T cells; 300 nM fac
  YFP fluorescence quenching using Facinicline: −12.54
Lenti-X 293T cells; 300 nM var, first column
  YFP fluorescence quenching using Varenicline: 2.966
Lenti-X 293T cells; 300 nM var, second column
  YFP fluorescence quenching using Varenicline: 10.211
Lenti-X 293T cells; 500 nM var, first column
  YFP fluorescence quenching using Varenicline: 15.278
Lenti-X 293T cells; 500 nM var, second column
  YFP fluorescence quenching using Varenicline: 20.84
Lenti-X 293T cells; 1 uM CNL001, first column
  YFP fluorescence quenching using CNL001: 71.811%
Lenti-X 293T cells; 1 uM CNL001, second column
  YFP fluorescence quenching using CNL001: 69.907%
Lenti-X 293T cells; 1 uM CNL002
  YFP fluorescence quenching using CNL002: 61.97%
Lenti-X 293T cells; 1 uM abt
  YFP fluorescence quenching using ABT-126: −9.38%
Lenti-X 293T cells; 1 uM tc6987
  YFP fluorescence quenching using TC-6987: 0.88
Lenti-X 293T cells; 1 uM var, first column
  YFP fluorescence quenching using Varenicline: 37.104
Lenti-X 293T cells; 1 uM var, second column
  YFP fluorescence quenching using Varenicline: 42.439
Lenti-X 293T cells; 10 uM tc6987
  YFP fluorescence quenching using TC-6987: 56.27
Lenti-X 293T cells; 30 uM CNL002
  YFP fluorescence quenching using CNL002: 65.77%
Lenti-X 293T cells; 30 uM azd0328
  YFP fluorescence quenching using AZD-0328: 74.9%
Lenti-X 293T cells; 30 uM fac
  YFP fluorescence quenching using Facinicline: 70.96
Lenti-X 293T cells; 500 uM tc6987
  YFP fluorescence quenching using TC-6987: 71.3
Lenti-X 293T cells; TC-6683 30 nM
  percent quench of YFP fluorescence, 30 nM TC-6683: 1.189%
Lenti-X 293T cells; TC-6683 300 nM
  percent quench of YFP fluorescence, 300 nM TC-6683: 0.939%
Lenti-X 293T cells; TC-6683 3 uM
  percent quench of YFP fluorescence, 3 uM TC-6683: 1.327%
Lenti-X 293T cells; TC-6683 30 uM
  percent quench of YFP fluorescence, 30 uM TC-6683: −0.845%
Lenti-X 293T cells; TC-6683 100 uM
  percent quench of YFP fluorescence, 100 uM TC-6683: −3.136%
Lenti-X 293T cells; acetylcholine 10 uM
  percent quench of YFP fluorescence, 10 uM ach: −1.62%
Lenti-X 293T cells; acetylcholine 50 uM
  percent quench of YFP fluorescence, 50 uM ach: −1.6%
Lenti-X 293T cells; acetylcholine 100 uM
  percent quench of YFP fluorescence, 100 uM ach: −2.62%
Lenti-X 293T cells; acetylcholine 300 uM
  percent quench of YFP fluorescence, 300 uM ach: −6.12%
Lenti-X 293T cells; acetylcholine 500 uM
  percent quench of YFP fluorescence, 500 uM ach: −7.71%
Lenti-X 293T cells; acetylcholine 1 mM
  percent quench of YFP fluorescence, 1 mM ach: −5.73%
Lenti-X 293T cells; acetylcholine 3 mM
  percent quench of YFP fluorescence, 3 mM ach: 33.69%
Rat DRG neurons; +TC-5619 @ EC90
  Rheobase Shift; Rat DRG Neurons, +TC-5619 @ EC90: 638 ± 63 pA
Rat DRG neurons; Baseline, no ligand
  Rheobase Shift; Rat DRG Neurons, Baseline: 100 ± 23 pA
